Laboratory results published in patent US20110311555A1.

Molecular target: endogenous AP-1 (activator protein 1) in 293 cells, activated by MEKK1
Assay: cell-based or functional assay
Conditions: scale: normalized promoter activity

AP-1 dependent transactivation (pAP-1-Luc reporter, MEKK1-activated, 293 cells), normalized promoter activity: 176
Substance: Tcl1 R52H (pCMV5-TCL1 R52H construct) (from UniProt P56279 1-114)
